Data taken from patent publication US20050208041A1 (Bristol-Myers Squibb, published 2005).
Changes are numbered by the printed parent chain. Numbers in names are those of the source. Blank lines part the entries; values can stand above or below the binder they belong to.

Columns and labels:
[1] = target: T1, purified recombinant IFNAR-1 extracellular fragment (human, UniProt P17181 28-436); assay: Biacore, IFNAR-1 extracellular fragment coupled to CM5 chip, antibody 1.75-80 nM
T1 construct: extracellular domain; also called soluble IFNAR-1; soluble IFNAR
T1 sequence (looked up): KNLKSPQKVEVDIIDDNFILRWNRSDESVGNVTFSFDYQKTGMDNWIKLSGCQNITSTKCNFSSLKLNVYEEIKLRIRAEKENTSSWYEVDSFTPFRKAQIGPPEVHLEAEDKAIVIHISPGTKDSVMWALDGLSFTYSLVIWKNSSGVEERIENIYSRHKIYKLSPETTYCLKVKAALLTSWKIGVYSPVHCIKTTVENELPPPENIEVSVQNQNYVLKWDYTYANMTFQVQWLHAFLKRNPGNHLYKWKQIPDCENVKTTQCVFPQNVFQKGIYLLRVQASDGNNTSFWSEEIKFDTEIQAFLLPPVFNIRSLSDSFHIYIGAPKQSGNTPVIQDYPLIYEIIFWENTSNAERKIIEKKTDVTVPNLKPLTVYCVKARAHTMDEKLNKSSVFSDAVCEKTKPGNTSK
Protocol: Antibodies from clones 64G12, H2K6, H2K1, H3K6, and H3K1 were assayed by Biacore analysis (Biacore AB, Uppsala, Sweden) to determine binding kinetics. Purified recombinant IFNAR-1 extracellular fragment was coupled to the CM5 sensor chip @ 600 RU. Binding was measured by adding antibody at concentrations from 1.75-80 nM at a flow rate of 20 ul/min. The binding curves were fit to a Langmuir binding model using BIAevaluation software (Biacore AB, Uppsala, Sweden).

[2] = target: T2, IFNAR-1 on human cells (human, UniProt P17181 28-557); assay: cell-based or functional assay
T2 sequence (looked up): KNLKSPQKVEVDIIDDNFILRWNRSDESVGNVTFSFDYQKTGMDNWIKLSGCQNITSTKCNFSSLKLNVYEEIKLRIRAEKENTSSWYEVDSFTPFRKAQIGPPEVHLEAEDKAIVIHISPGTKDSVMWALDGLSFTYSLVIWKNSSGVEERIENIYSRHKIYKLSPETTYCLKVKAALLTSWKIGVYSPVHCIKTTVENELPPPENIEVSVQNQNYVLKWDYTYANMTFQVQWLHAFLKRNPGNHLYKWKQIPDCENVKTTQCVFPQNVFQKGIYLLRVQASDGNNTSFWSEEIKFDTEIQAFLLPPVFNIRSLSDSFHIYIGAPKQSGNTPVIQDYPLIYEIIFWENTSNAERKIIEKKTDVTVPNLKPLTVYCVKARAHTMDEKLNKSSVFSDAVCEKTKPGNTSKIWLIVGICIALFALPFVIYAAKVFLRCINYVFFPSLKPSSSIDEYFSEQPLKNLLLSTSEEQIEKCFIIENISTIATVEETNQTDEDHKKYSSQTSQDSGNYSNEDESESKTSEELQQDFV

[3] = target: T2, IFNAR-1 on human cells; assay: cell-based or functional assay; remark: listed apart in the source
[4] = target: T1, purified recombinant IFNAR-1 …; assay: Biacore, antibody on immobilized soluble IFNAR-1, maximal response, mean of four
Protocol: Additional combination variants heavy chain DI M3-B and light chain DI K1-C were also made. These combination variants were also tested for binding to IFNAR-1. […] Binding analysis was done by Biacore, with the antibody bound to immobilized soluble IFNAR-1. Maximal response was determined at two concentrations and values shown are mean of four determinations.

[5] = target: T1, purified recombinant IFNAR-1 …; assay: Biacore, response on IFNAR-1 (flow cell 2) divided by response on anti-human IgG Fc (flow cell 4)
From the text: A series of antibodies were constructed with reduced numbers of potential T-cell epitopes. These included heavy chain variants M3-A and M3-B in which residues were changed in CDR regions and DI M3 in which framework residues were altered. De-immunized light chains were also constructed termed K1-C, K1-D, K1-E and DI K1. The antibodies were expressed and purified before analysis by Biacore. A Biacore chip was used with IFNAR-1 coated on Flow cell 2 at 690 RU and anti-human IgG Fc on flow cell 4 at 5000 RU. Binding of the antibody to IFNAR-1 relative to anti-human IgG Fc was determined by the ratio of response at flow cell 2 divided by flow cell 4 (Fc2/Fc4).

[6] = target: T1, purified recombinant IFNAR-1 …; assay: Biacore, antibody captured on anti-human IgG Fc, soluble IFNAR 25-400 nM, flow cell 2-1 low density capture
[7] = target: T1, purified recombinant IFNAR-1 …; assay: Biacore, antibody captured on anti-human IgG Fc, soluble IFNAR 25-400 nM, flow cell 4-3 higher density capture
[8] = target: T1, purified recombinant IFNAR-1 …; assay: Receptor Binding (Biacore), purified recombinant receptor; Biacore, purified recombinant receptor (not BALL-1 cells)
[9] = target: T2, IFNAR-1 on human cells; assay: Scatchard analysis, 125I-labelled antibody on BALL-1 cells
Protocol: BALL-1 cells, which express IFNAR-1 and IFNAR-2, were used to assess the binding of anti-IFNAR-1 humanized antibodies to cells by Scatchard analysis. The cells were grown in RPMI containing 10% FCS and washed twice with Hanks Balanced Salt Solution (HBSS) at 4 degrees C. […] Millipore plates (MAFB NOB) were coated with 1% nonfat dry milk in water and stored a 4° C. overnight. The plates were washed with binding buffer and 25 ul of unlabeled antibody (1000-fold excess) in TBS binding buffer was added to control wells in a Millipore 96 well glass fiber filter plate (non-specific binding NSB). Twenty-five microliters of buffer alone was added to the maximum binding control well (total binding). Twenty-five microliters of ¹²⁵I-anti-IFNAR-1 antibody and 25 ul of BALL-I cell suspension (4×10⁷ cells/ml) in TBS binding buffer were added. The plates were incubated for 2 hours at 200 RPM on a shaker at 4° C. At the completion of the incubation the Millipore plates were washed twice with 0.2 ml of cold TBS binding buffer containing a final concentration of 0.5 M NaCl. The filters were removed and counted in a gamma counter. Evaluation of equilibrium binding was performed using single site binding parameters with the Prism software (San Diego, Calif.).
Therefore in either a protein-based or cell-based assay, the binding affinity of the antibodies are in the low nM range.

B1: H2K6 (antibody, V domains shown)
VH: QVTLKESGPALVKPTQTLTLTCTFSGFSLSTSGMGIGWIRQPPGKALEWLAHIWWDDDKYYNPSLKSRLTISRDTSKNQVVLTMTNMDPVDTATYYCGRNYYPYDAWFDYWGQGTLVTVS
VL: EIVLTQSPDFQSVTPKEKVTITCSASSSINSNHLHWYQQKPGQSPKLLIYRTSILASGVPSRFSGSGSGTSFTLTINSLEAEDVATYYCQQGSNIPFTFGQGTKLEIKR
notes: Full-length antibody with human IgG constant regions; also called heavy chain H2 with light chain K6
- Kd [1]: 1.3 nM

B2: H3K1 (IgG1) (antibody, V domains shown)
VH: EVQLVESGGGLVQPGGSLRLSCAFSGFTLSTSGMGIGWVRQAPGKGLEWVAHIWWDDDKYYNPSLKSRFTISRDTSKNTVYLQMNSLRAEDTAVYYCARNYYPYDAWFDYWGQGTLVTVS
VL: DIQMTQSPSSLSASVGDRVTITCSASSSINSNHLHWYQQKPGKAPKLLIYRTSILASGVPSRFSGSGSGTSFTLTISSLQPEDFATYYCQQGSNIPFTFGQGTKVEIKR
- Cell Proliferation (Daudi) IC50, cells cultured with interferon α2b [2]: 3.9 nM
- ISRE-RG Reporter (U937) IC50, interferon α2b [2]: 2.7 nM
- ISRE-RG reporter assay with IFNβ, potency against H3K1 (IgG4) [3]: ~10 fold

B3: H3K6 (antibody, V domains shown)
VH: B2 VH
VL: B1 VL
notes: Full-length antibody with human IgG constant regions; also called heavy chain H3 with light chain K6
- Kd [1]: 1.8 nM

B5: M3 heavy chain with DI K1 light chain (antibody, human IgG4, V domains shown)
VH: B2 VH with V5L
VL: B2 VL with V19A, Q38L, L47A, V59I, S71D, F84T
notes: also called M3 DI K1
- % response relative to H3K1 [4]: 25%
- % activity relative to H3K1 [5]: 57%
- Fc2/Fc4 [5]: 0.17

B6: H2K1 (antibody, V domains shown)
VH: B1 VH
VL: B2 VL
notes: Full-length antibody with human IgG constant regions; also called heavy chain H2 with light chain K1
- Kd [1]: 0.8 nM

B8: M3 heavy chain with K1-C light chain (antibody, human IgG4, V domains shown)
VH: B2 VH with V5L
VL: B2 VL with S27T
notes: also called M3 K1-C
- % response relative to H3K1 [4]: 100%
- % activity relative to H3K1 [5]: 97%
- Fc2/Fc4 [5]: 0.29

B9: M3-B heavy chain with K1-C light chain (antibody, V domains shown)
VH: B2 VH with V5L, S67A
VL: B2 VL with S27T
notes: also called M3-B K1-C
- Kd [6]: 7.47 nM
- koff [6]: 4.1e-05 s⁻¹
- kon [6]: 5490 M⁻¹ s⁻¹
- Kd [7]: 7.45 nM
- koff [7]: 4.06e-05 s⁻¹
- kon [7]: 5460 M⁻¹ s⁻¹
- % response relative to H3K1 [4]: 156%

B10: M3-B heavy chain with K1 light chain (antibody, human IgG4, V domains shown)
VH: B2 VH with V5L, S67A
VL: B2 VL
notes: also called M3-B K1
- % response relative to H3K1 [4]: 117%
- % activity relative to H3K1 [5]: 103%
- Fc2/Fc4 [5]: 0.31

Now from value to binder:

- Cell Proliferation (Daudi) IC50, cells cultured with interferon α2b [2]: 10 nM
- ISRE-RG Reporter (U937) IC50, interferon α2b [2]: 4.6 nM
B4: DI M3-B K1C (h IgG1) (antibody, V domains shown)
VH: B2 VH with V5L, F24A, L29M, V39I, A42T, S67A, V80L
VL: B2 VL with S27T

- % response relative to H3K1 [4]: 8%
- % activity relative to H3K1 [5]: 20%
- Fc2/Fc4 [5]: 0.06
B7: DI M3 heavy chain with DI K1 light chain (antibody, human IgG4, V domains shown)
VH: B2 VH with V5L, F24A, L29M, V39I, A42T, R73K, V80L
VL: B2 VL with V19A, Q38L, L47A, V59I, S71D, F84T
notes: also called DI M3 DI K1

- Kd [6]: 0.502 nM
- koff [6]: 2.82e-06 s⁻¹
- kon [6]: 5610 M⁻¹ s⁻¹
- Kd [7]: 3.53 nM
- koff [7]: 1.64e-05 s⁻¹
- kon [7]: 4640 M⁻¹ s⁻¹
- % response relative to H3K1 [4]: 100%
B11: DI M3-B heavy chain with K1-C light chain (Example 3) (antibody, V domains shown)
VH: B2 VH with V5L, F24A, L29M, V39I, A42T, S67A, V80L
VL: B2 VL with S27T
notes: also called DIM3-B K1-C; DI M3-B K1-C

- Cell Proliferation (Daudi) IC50, cells cultured with interferon α2b [2]: 2.1 nM
- ISRE-RG Reporter (U937) IC50, interferon α2b [2]: 5.8 nM
- fold decrease in ISRE-RG reporter assay with IFNβ, potency against H3K1 (IgG1) [3]: 3 fold
- Kd [8]: 1.2 nM
- Kd [9]: 3.9 nM
- Kd [1]: 1.2 nM
B12: murine monoclonal antibody 64G12 (antibody, V domains shown)
VH: QVTLKESGPGILKPSQTLSLTCSFSGFSLSTSGMGIGWIRQPSGKGLEWLAHIWWDDDKYYNPSLKSQLTISRDTSTNQVFLNITSVDTVDTATYYCGRNYYPYDAWFDYWGQGTLVTVS
VL: EIVLTQSPTTMAASPGEKITITCSASSSINSNHLHWYQQKPGFSPKVLIYRTSILASGVPTRFSGSGSGTSYSLTIGTMEAEDVATYYCQQGSNIPFTFGSGTELEIKR
notes: Mouse IgG1, kappa light chain; also called 64G12 (mouse IgG1); murine anti-IFNAR-1 mAb 64G12

- Kd [1]: 3.6 nM
B13: mouse-human chimeric antibody with 64G12 variable regions and human IgG4 kappa constant regions (antibody, V domains shown)
VH: B12 VH
VL: B12 VL
notes: also called Chimeric IgG4; human IgG4 chimeric antibody
